Data published in a protein production outcome set (Wang et al. 2014).

Assay: label from the status in PepcDB records
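Further: failed if final PepcDB status was selected cloned or expressed and not failed if soluble or beyond.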

Sequence: MALAVYLVPLPGLRASGHAALALLVFAVTMWATEAVPLAVTSLIILFAQPLIGVESFENAVIGFANPILFLMIGGFIMAEAIRKSGLAQRFTYYLLGRLGTSPERGLFVSIFSTGLLSAWIENVVAFAMLLPIIKEIVDIMGCSEPEKGKSNYAKAMILGASFGSLAGGFGTEIGTAPNLMAAAYTSIPFLNWMIFGLPLSIAMLLVTWFLLMRIFPSEVRALENGDALIGERIRMMGSMSRDEKLSAGILLFAILLWVTAGFTGINSYSVSLIAAVMFIFAGVITWKDAQKNIDWGLVVFFGGALSLGSALLKTGAAAWIIDKLVGMLGSDPSTVIVMLVLMAVAVIITQVMSNIALSAILVPLSVTLASAQHQPIGVYAVPVAIACSLSFMLPMADPTVAMAYGSGYVKLRDIPRAGIPIIAVGIILTVLVITTLAAPFIS
- protein production: failed

Sequence: MALEQTLKKDWYSILGADPSANMSDLKQKYQKLILLYHPDKQSADVPAGTMEECMQKFIEIDQAWKILGNEETKKKYDLQR
- protein production: not failed

Sequence: MALHSSSDQYGSVAVTIHWLTAVLIVIALLTGFRAAAAEDVTTEAALLRVHLPAAALVLVLTVVRVVWWLGIDDKPEPIDGAPRSQQLIAGTVHLLFYVVVFGMIASGIGMMLASGAAPAIFSRDVPALPEFWHYRPRIPHGLGARLLVLLLIAHLAAALYHHLRGDRVFRRMWFGRNPKS
- protein production: failed

Sequence: MALKPTIYKFRIALSDMNNDYYDSKNLTIALHPSEKPQRMLARILAFCLNAQKDLEFTKGLSTTEEPDLWHVADDQSITHWIEIGEPEPDRIKKASRLAKQVKVYTYNTKAPVWWEKMSGKFSMLPVSVESFDYDAIDMICQHLDRGTNLSVMITGTSIFVDVNDQHVEVTVKELQSHDAP
- protein production: not failed

Sequence: MALKTDIRGMIWRYPDYFIVGREQCREFARAVKCDHPAFFSEEAAADLGYDALVAPLTFVTILAKYVQLDFFRHVDVGMETMQIVQVDQRFVFHKPVLAGDKLWARMDIHSVDERFGADIVVTRNLCTNDDGELVMEAYTTLMGQQGDGSARLKWDKESGQVIRTALEHHHHHH
- protein production: failed

Sequence: MALLRRFIGQKVRTVIQVTGSEIGSVVGKSTDDLQIVVRGSSPPSPLTTYLEVIGIAESDNAIRAETWTNFGNTFDTQNYNELCKLAN
- protein production: failed

Sequence: MALPQLSIWQPGDGLRKIKYKYHVCLIVIFSVLIRLLFLTDRYLWCDEASSVLISRHSVDNLLFHAAFDVHPPLYYLLLHDWIILLGDSIAAVRSLSLLFGILTVVLVIALTRWLANERTALLAGWFAALMPMAVHYSQETRMYALMGMLTLAAALALMMWIKTPTHNRYLVAYALLMTFSFYTHYFTLFTLIAHWIAVTILSCQSHKTACYLKLPGWWFANLAIAVAYLPWLPVLFNLLTHLAQLRAGNDIGWIPPVTWRDLPAMYWHFFTGNNGQGFPSFILWLAVGGFIGTVGRISLYNGEYERYQLILFCNLVIPVMLVFIISWWMPLFIDRYFFFSSLSIPPLLAVLLTRAKKAVCGFWFILFTLLFGYGSYHNNPEHIDEFKPLVNYINTRHQPNDAVVVSKMFDYLSYVYYNKRDYRTFLYTPPNAHGTSGRPNAYGFGSLFYAQADQTYIDTLTTLSKSYHRVWLVSGGNFSQDYPLPSEWQNIAKFRSGRFQVQLFVIPTQQARQMQ
- protein production: failed

Sequence: MALQAGVEKGENLVVAAPTGSGKTFIALVAIVNSLARAGGRAFYLVPLKSVAYEKYTSFSILSRMGLKLKISVGDFREGPPEAPVVIATYEKFDSLLRVSPSLARNVSVLIVDEIHSVSDPKRGPILESIVSRMLASAGEAQLVGLSATVPNAGEIAEWIGGKIVESSWRPVPLREYVFKEYKLYSPTGGLREVPRVYGLYDLDLAAEAIEDGGQALVFTYSRRRAVTLAKRAAKRLGRRLSSREARVYSAEASRAEGAPRSVAEELASLIAAGIAYHHAGLPPSLRKTVEEAFRAGAVKVVYSTPTLAAGVNLPARRVVIDSYYRYEAGFREPIRVAEYKQMAGRAGRPGLDEFGEAIIVAERLDRPEDLISGYIRAPPERVESRLAGLRGLRHFILGIVAPEGEVSIGSIEKVSGLTLYSLQRGLPRETIARAVEDLSAWGLVEVKGWRIAATSLGREVAAVYLDPESVPVFREEVKHLSFDNEFDILYLISTMPDMVRLPATRREEERLLEAILDASPRMLSSVDWLGPEEMAAVKTAVVLKLWIDEASEDTIYGEWGVHTGDLLNMVSTAEWIASGLSRIAPYLGLNSKVSHILSVIARRIKHGVKPELLQLVEIPGVGRVRARILFEAGYRSIEDLATARAEDLMRLPLIGPSTARQILEFLGRVDEAREAEAREMLARKGLLSYLEGDAVAGEEGE
- protein production: failed

Sequence: MALRKIAGLYRIEKFIRERPVEKIRQWRQRYSRPIVNDLFAWPEEQEPCCPPDGPLNKAINYILNRRDELSCFLSDGAVPLDNNICERAIRPVVMGRKAWLFAGSLMAGNRAAQIMSLLETAKRNGLEPHAWLTDVLTRLPEWPEDRLEELLPLEGFTFSG
- protein production: failed

Sequence: MALRLALSLCVYLLFTQGAQGNTDDFDCVEIYKQPAFQHPLLKDHKIQETFSLDGKIERSNKYNTKEHCPKGTVAILRQRNVSKGVHLNTAEYSGQHFATIETILDGSIYRGAEADISIHDLKLQNNQYSKSQIWLENGPPGQLNSIQAGLAVHPRLYGDSVTRFTIYWTGDGYQKTGCYNTQCPGFVVVSRNSRIGSGFWGTSVYGKTSLTFKLQVFQDGFSGNWALKMFDEVIGYWPKELFSHLNNGASLVRYGGNTFESPDGISPPMGNGFFPVADFKKTAHFNNVVVINSDYKRVYIEGRKIRLYVDSYNCFRATYWGYTKSTGEAFSFGGPGGNCGF
- protein production: failed

Sequence: MALRTLSTFPSLPRRHTTTRREPNLTVIYRNPTTSIVCKSIANSEPPVSLSERDGFAAAAPTPGERFLENQRAHEAQKVVKKEIKKEKKKKKEEIIARKVVDTSVSCCYGCGAPLQTSDVDSPGFVDLVTYELKKKHHQLRTMICGRCQLLSHGHMITAVGGNGGYPGGKQFVSADELREKLSHLRHEKALIVKLVDIVDFNGSFLARVRDLVGANPIILVITKIDLLPKGTDMNCIGDWVVEVTMRKKLNVLSVHLTSSKSLDGVSGVASEIQKEKKGRDVYILGAANVGKSAFINALLKTMAERDPVAAAAQKYKPIQSAVPGTTLGPIQINAFVGGEKLYDTPGVHLHHRQAAVVHSDDLPALAPQNRLRGQSFDISTLPTQSSSSPKGESLNGYTFFWGGLVRIDILKALPETCFTFYGPKALEIHAVPTKTATAFYEAKLGVLLTPPSGKNQMQEWKGLQSHRLLQIEINDAKRPASDVAISGLGWISIEPIRKTRGTEPRDLNEAEHEIHICVSVPKPVEVFLRPTLPIGTSGTEWYQYRELTDKEEEVRPKWYF
- protein production: failed

Sequence: MALRVTFVAAARSSPLLAERFDDERPLDQAGWNEALRAAGDLLPLAAAELRYCSPTPRSRATGDAIGCAPLSQLALRACDMGRWRGLTLGEAMAREPAAVDAWLADPRSAPHGGESLLGFITRVGGWLDTRPGEDGDRIVAVAEPSVIRAALVYALKAPPGTYWNLDVRPLSTTTVTGRAGRWSLRFEGTPDQGATRPAFRGGNPL
- protein production: failed

Sequence: MALTPDQMPDRAEVVFTCNGKAVGKMRNELDVAMVKPFEERFALATDEGAFHGGDASAPPPLALFIAGLTGCVMTQIRAFAKRLKVTVTDLDVECRVVWDWAKAGPVYETGPKSFEIDIILHSPDPIEAQQALIEAAKKGCFLEQTLGQANTIRHRLKVGDTFIDA
- protein production: not failed

Sequence: MALTTISPHDAQELIARGAKLIDIRDADEYLREHIPEADLAPLSVLEQSGLPAKLRHEQIIFHCQAGKRTSNNADKLAAIAAPAEIFLLEDGIDGWKKAGLPVAVNKSQPLPLMRQVQIAAGGLILIGVVLGYTVNSGFFLLSGFVGAGLLFAGISGFCGMARLLDKMPWNQRA
- protein production: failed

Sequence: MALVRSLFVSNKILGGSLAGMRKSTSAPKGFLAVYVGESQKKQRYLVLVSYLSQPLFQDLLSKSEEEFGFDHPMGGLTIPCPEDTFLTVTSRIQG
- protein production: failed

Sequence: MAMEIGEDEWKVCCGSSEFAKQMSTSGPLTSQEAIYTARDIWFNQVNVTDWLEAFSAHPQIGNTPSPSINSDFARRSVSEQSTAFATTSASALQELAEWNVLYKKKFGFIFIICASGRTHAEMLHALKERYENRPIVELEIAAMEQMKITELRMAKLFSDKAKVISETDSSSSPVSTKPQDRLRIIGGHLNVAAEAKAPKRSRPPITTHVLDVSRGAPAAGVEVHLEVWSGTTGPSFVHGGGGVWSSVGTSATDRDGRSGPLMDLVDALNPGTYRISFDTAKYSPGCFFPYVSIVFQVTESQKWEHFHVPLLLAPFSFSTYRGS
- protein production: failed

Sequence: MAMEKPVLWYIADPMCSWCWGFAPVIENIRQEYSAFLTVKIMPGGLRPGTNTPLLPEKRAQILHHWHSVHITTGQPFTFENALPEGFIYDTEPACRGVVSVSLIEPEKVFPFFAAIQRAFYVGQEDVAQLAILKKLAVDLGIPESRFTPVFQSDEAKQRTLAGFQRVAQWGISGFPALVVESGTDRYLITTGYRPIEALRQLLDTWLQQHGV
- protein production: not failed

Sequence: MAMMAKHQAVKKIFDQIATKYDLIDTIISLGLDQHWRRVLVSSLGLREGMRCLDCGAGSGKVTELIYFRCGGCDVTALDITDSMFNPELKKYVKFVVSPAESLPFPDASFDRVSSAFLTRNLADIDRYFAEVYRVLRPGGVFVNMDIYNPTRPVISEFFSLYFYRFVPFFGNRATGSKNYTYLANTVKYFHRPSVISQKLADRGFSVEATDLFFGAVYLHRSVKPEGRGLEHHHHHH
- protein production: failed

Sequence: MAMRDLVNGGAACAVPGSSSSSNPLGALTNALLGSSSKTQERLKEIPNANRSGPRPQFYSEDQQIRSLPGSELDQPLLQPGAQGSEFFRGFRSVDQNGLGAAWDEVQQGGPMPPMGPMFEPVQPTFEGPPQRVLSNFLHSFVESSRGGIPFRPAPVPVLGLSQSDKQCIRDRSSIMARHFFADRGEEFINSQVNALLSSLDIDDGIQARGHVPGRFRELDDYWNESQAVVKPNLHPADNWAAEFNQHGMDHGGPDSWVQSFEQQHGVNGWATEFEQGQSQLMSSQMRSMDMQNIAAMEQTRKLAHTLSQDGNPKFQNSRFLQFVSKMSRGELIIDENQVKQASAPGEWATEYEQQYLGPPSWADQFANEKLSHGPEQWADEFASGRGQQETAEDQWVNEFSKLNVDDWIDEFAEGPVGDSSADAWANAYDEFLNEKNAGKQTSGVYVFSDMNPYVGHPEPMKEGQELFRKGLLSEAALALEAEVMKNPENAEGWRLLGVTHAENDDDQQAIAAMMRAQEADPTNLEVLLALGVSHTNELEQATALKYLYGWLRNHPKYGAIAPPELADSLYHADIARLFNEASQLNPEDADVHIVLGVLYNLSREFDRAITSFQTALQLKPNDYSLWNKLGATQANSVQSADAISAYQQALDLKPNYVRAWANMGISYANQGMYKESIPYYVRALAMNPKADNAWQYLRLSLSCASRQDMIEACESRNLDLLQKEFPL
- protein production: failed

Sequence: MAMSLSGAVLSGMGSSFHNVGAKQSGVGTVRVGRKSELVVVAQRKKSLIYAVKSDGNILDDLNEATKKASDFVTDKTKEALADGEKTKDYIVEKTIEANETATEEAKKALDYVTEKGKEAGNKAAEFVEGKAEEAKNATKS
- protein production: failed

Sequence: MANADLDKQPDSVSSVLKVFGILQALGEEREIGITELSQRVMMSKSTVYRFLQTMKTLGYVAQEGESEKYSLTLKLFELGARALQNVDLIRSADIQMRELSRLTKETIHLGALDEDSIVYIHKIDSMYNLRMYSRIGRRNPLYSTAIGKVLLAWRDRDEVKQILEGVEYKRSTERTITSTEALLPVLDQVREQGYGEDNEEQEEGLRCIAVPVFDRFGVVIAGLSISFPTLRFSEERLQEYVAMLHTAARKISAQMGYHDYPF
- protein production: not failed

Sequence: MANDIDRAGVAKAYARWAPIYDLVFGKVFDSGRQSTIAVADAIGGRVLDVGVGTGLSLSDYSKTTRLCGVDISEPMLRKAHERVRTLNLSNVDVLAVMDAKNLAFPANYFDAVVAQYVITAVPDPEATLDDFIRVLKPGGELILVNHIGAESGPRKLFELAFSPIARRLGWRPEFPWQRLVNWAARHRGVELAERRPMPPMGHFSLIRYRKLLEHHHHHH
- protein production: failed
